± gives the uncertainty stated by the source.
Assay: self-splicing fitness, log relative to wild type (ln ratio); higher = more splicing; Tetrahymena group I intron in knt gene, E. coli kanamycin selection, DiMSum; sequences stand for … in CUCUCU…GGAGGGAAAAGUUAUCAGGCAUGCACCUGGUAGCUAGUCUUUAAACCAAUAGAUUGCAUCGGUUUAAAAGGCAAGACCGUCAAAUUGCGGGAAAGGGGUCAACAGCCGUUCAGUACCAAGUCUCAGGGGAAACUUUGAGAUGGCCUUGCAAAGGGUAUGGUAAUAAGCUGACGGACAUGGUCCUAACCACGCAGCCAAGUCCUAAGUCAACAGAUCUUCUGUUGAUAUGGAUGCAGUUCACAGACUAAAUGUCGGUCGGGGAAGAUGUAUUCUUCUCAUAAGAUAUAGUCGGACCUCUCCUUAAUGGGAGCUAGCGGAUGAAGUGAUGCAACACUGGAGCCGCUGGGAACUAAUUUGUAUGCGAAAGUAUAUUGAUUAGUUUUGGAGUACUCGUGGUCG
Outline: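 DiMSum derived fitness as the error-weighted combination of fold changes across replicates, kanamycin versus no kanamycin, normalised to wild type. E. coli BL21(DE3) held the library, which randomised all eight P1ex-region intron nucleotides within the knt kanamycin-resistance gene on pET-22b(+). Six replicate transformations grew overnight at 37°C or 30°C on LB agar with or without 25 μg/mL kanamycin, also containing 100 μg/mL carbenicillin, 50 μM IPTG and 0.2% rhamnose, and pooled colonies were amplicon-sequenced on an Illumina HiSeq 2500.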

Row | Sequence | self-splicing fitness (ln) (30 °C) | self-splicing fitness (ln) (37 °C)
1 | GGUAAGCAAUAUUACGACGC | 0.697 ± 0.17 | 0.22 ± 0.21
2 | AUUCAGCAAUAUUACGCGGG | -2.38 ± 0.15 | -0.332 ± 0.11
3 | CGGGAGCAAUAUUACGCGAU |  | -1.6 ± 0.41
4 | UCAUAGCAAUAUUACGAACA | -1.78 ± 0.17 | -0.838 ± 0.16
5 | CUCCAGCAAUAUUACGACCG | -0.451 ± 0.12 | -1.15 ± 0.2
6 | CUCAAGCAAUAUUACGGCGC |  | -0.598 ± 0.19
7 | GGGAAGCAAUAUUACGUAAC | -2.91 ± 0.26 | -1.06 ± 0.18
8 | CUCGAGCAAUAUUACGCCGA | -1.32 ± 0.19 | -2.42 ± 0.24
9 | CUAUAGCAAUAUUACGGGUC | -3.19 ± 0.29 | -2.05 ± 0.28
10 | UUAAAGCAAUAUUACGAAGG | -0.779 ± 0.14 | -1.09 ± 0.18
11 | AAGGAGCAAUAUUACGAGGU | -3.6 ± 0.23 | -3.6 ± 0.47
12 | GUAAAGCAAUAUUACGUUGU | -3.6 ± 0.17 | -2.13 ± 0.19
13 | AUACAGCAAUAUUACGUGUC | -4.39 ± 0.14 | -2.67 ± 0.13
14 | CGGCAGCAAUAUUACGAGAA | -3.01 ± 0.19 | -2.32 ± 0.19
15 | CGGGAGCAAUAUUACGGUGA | -2.3 ± 0.33 | 
16 | GCGGAGCAAUAUUACGAGUC |  | -1.09 ± 0.45
17 | CGCCAGCAAUAUUACGCGCA | -1.98 ± 0.13 | -0.948 ± 0.13
18 | AGAAAGCAAUAUUACGUGCC | -0.45 ± 0.12 | -0.309 ± 0.16
19 | AAUUAGCAAUAUUACGGGUG | -1.04 ± 0.066 | -0.54 ± 0.083
20 | GAGCAGCAAUAUUACGAAAG | -3.71 ± 0.33 | -1.93 ± 0.22

Row | Sequence | self-splicing fitness (ln) (30 °C) | self-splicing fitness (ln) (37 °C)
21 | CAAUAGCAAUAUUACGCCGC | -2.12 ± 0.22 | -2.72 ± 0.4
22 | GGCCAGCAAUAUUACGAAAC | -0.973 ± 0.079 | 0.00581 ± 0.1
23 | GUCUAGCAAUAUUACGAGAU | -3.31 ± 0.26 | -2.32 ± 0.22
24 | GGCAAGCAAUAUUACGACCG | -0.371 ± 0.11 | -0.482 ± 0.15
25 | CAGAAGCAAUAUUACGGAUG | -2.75 ± 0.17 | -2.6 ± 0.21
26 | UAACAGCAAUAUUACGGCUU | -0.716 ± 0.082 | -0.0863 ± 0.1
27 | GGUAAGCAAUAUUACGGAGG |  | -3.58 ± 0.42
28 | UGCCAGCAAUAUUACGAAGG | -3.59 ± 0.27 | -2.6 ± 0.3
29 | CGGUAGCAAUAUUACGCAAA |  | -1.6 ± 0.42
30 | ACUGAGCAAUAUUACGGGUC | -4.21 ± 0.27 | -3.02 ± 0.33
31 | CCCGAGCAAUAUUACGCCGC | -3.53 ± 0.43 | -1.59 ± 0.47
32 | UAAAAGCAAUAUUACGCGGG | -2.62 ± 0.1 | -1.43 ± 0.12
33 | CAGCAGCAAUAUUACGGAGC | -3.3 ± 0.33 | -2.68 ± 0.39
34 | AUCCAGCAAUAUUACGCGGU |  | -3.32 ± 0.42
35 | GCCAAGCAAUAUUACGUUCU | -2.45 ± 0.081 | -1.53 ± 0.088
36 | GCCGAGCAAUAUUACGGUCC | -3.18 ± 0.29 | -1.23 ± 0.33
37 | AGGAAGCAAUAUUACGUCGA | -1.4 ± 0.16 | -0.922 ± 0.16
38 | AUAGAGCAAUAUUACGAGAU | -0.944 ± 0.27 | -1.72 ± 0.4
39 | AAGUAGCAAUAUUACGAGCA | -1.52 ± 0.15 | -0.816 ± 0.14
40 | AUCCAGCAAUAUUACGCAUC | -2.92 ± 0.18 | -1.97 ± 0.14

Reference: the supplement of paper PMC7877785
